Measurements published in patent publication US20240002497A1 (Merck Sharp & Dohme, published 2024).

Assays:
[1] = target: T1, huNav1.7α + β1-β2-β3 (human Nav1.7α co-expressed with Navβ1, Navβ2 and Navβ3) (human); assay: binding FACS, HEK FlpIn cells
T1 construct: also called huNav1.7-beta1-beta2-beta3

[2] = target: T2, huNav157 chimera 14 + β1-β2-β3 (human); assay: binding FACS, HEK FlpIn cells
T2 construct: Chimera of huNav1.7α (extracellular loops and transmembrane helices) and huNav1.5α (intracellular loops); also called Nav157ch14-β1-β2-β3; huNav157 chimera 14-beta1-beta2-beta3

[3] = target: T3, huNav157 chimera 14 (human); assay: binding FACS, HEK FlpIn cells
T3 construct: Chimera without β subunits; also called Nav157ch14

[4] = target: T4, huNav1.7α (human Nav1.7 alpha subunit, expressed without β subunits) (human, UniProt Q15858 1-1988); assay: binding FACS, HEKa cells
T4 construct: also called HEK293 human Nav1.7α; HEKa Nav1.7α

[5] = target: T5, huNav1.7α + β1 (human Nav1.7α co-expressed with Navβ1) (human, UniProt Q15858 1-1988; Q07699 19-218); assay: binding FACS, HEKa/β1 cells
T5 construct: also called HEK293 human Nav1.7α + β1; HEKa/β1 Nav1.7α

[6] = target: T6, muNav1.7α (murine Nav1.7α) (murine, UniProt Q62205 1-1984); assay: binding FACS; minus = lower activity than reference
T6 construct: HEK Jmp-In cells

[7] = target: T7, huNav157chim14 (human); assay: binding FACS, HEK Flp-In
T7 construct: HEK Flp-In cells; also called huNav157 chimera 14

[8] = target: T8, huNav157chim14-β1-β2-β3 (human); assay: binding FACS, HEK Flp-In
T8 construct: Whole entry; HEK Flp-In cells; also called huNav157 chimera 14-beta1-beta2-beta3

[9] = target: T9, huNav1.7α + β1-β2-β3 (human, UniProt Q15858 1-1988; A5A6L6 19-218; O60939 30-215; Q2KI11 23-215); assay: binding FACS, CHO Flp-In, periplasmic extract
T9 construct: also called huNav1.7-beta1-beta2-beta3; huNav1.7-β1-β2-β3

[10] = target: T10, rhNav1.7α + β1-β2-β3 (rhesus monkey); assay: FACS, CHO Flp-In, competitor 1 µM F010300703
T10 construct: also called rhNav1.7-beta1-beta2-beta3; rhNav1.7-β1-β2-β3

[11] = target: T10, rhNav1.7α + β1-β2-β3; assay: FACS, CHO Flp-In, competitor 1 µM IRR00092
[12] = target: T9, huNav1.7α + β1-β2-β3; assay: FACS, CHO Flp-In, competitor 1 µM IRR00092
[13] = target: T11, Navβ3 (human, UniProt Q9NY72 23-215, limits assumed); assay: binding ELISA
T11 construct: also called beta3 subunit

[14] = target: T12, huNav1.7α (human, UniProt Q15858 1-1988); assay: further characterization (binding ELISA and FACS)
T12 construct: HEK cells expressing the α subunit alone; also called HEKa; HEK huNav1.7α

B1: F010301850 (VHH)
VHH: EVQLVESGGGVVQPGGSLRLSCAASGRILRIGYMRWYRQAPGKQREFVARITDDSATGYADSVKGRFTISRDNAKNTVYLQMNSLRPEDTALYYCEALVTASVRGGSIHSGTYWGQGTLVTVSS
notes: also called F0103387G05(L11V, A14P, D23A, H37Y, G40A, A41P, D58G, N82bS, N83R, V89L, R105Q)
**Q.** How did the EC50 [1] turn out when B1 was run?
**A.** The EC50 was 1.9 nM.

**Q.** And the EC50 [2]?
**A.** Its EC50 is 3 nM.

**Q.** What about the EC50 [3] of the same binder?
**A.** Its EC50 is 5.4 nM.

**Q.** And the Bmax [4]?
**A.** The Bmax was 100%.

**Q.** And the EC50 [4]?
**A.** Its EC50 is 2.8 nM.

**Q.** And the EC50 [5]?
**A.** Its EC50 is 1.8 nM.

B2: F010302307 (VHH)
VHH: EVQLVESGGGVVQPGGSLRLSCAASGRILRIGYMRWYRQAPGKQREFVARITDDSATGYADSVKGRFTISRDAAKNTVYLQMNSLRPEDTALYYCEALVTASVRGGSIHSGTYWGQGTLVTVSS
notes: also called F0103387G05(L11V, A14P, D23A, H37Y, G40A, A41P, D58G, N73A, N82bS, N83R, V89L, R105Q)
**Q.** For B2, which EC50 [1] is on record?
**A.** The EC50 was 2.9 nM.

**Q.** What about the Bmax [4] of the same binder?
**A.** The Bmax was 100%.

**Q.** And the EC50 [4]?
**A.** Its EC50 is 2.8 nM.

**Q.** And the EC50 [5]?
**A.** Its EC50 is 1.9 nM.

B3: F010302308 (VHH)
VHH: EVQLVESGGGVVQPGGSLRLSCAASGRILRIGYMRWYRQAPGKQREFVARITDDSATGYADSVKGRFTISRDYAKNTVYLQMNSLRPEDTALYYCEALVTASVRGGSIHSGTYWGQGTLVTVSS
notes: also called F0103387G05(L11V, A14P, D23A, H37Y, G40A, A41P, D58G, N73Y, N82bS, N83R, V89L, R105Q)
**Q.** For B3, which EC50 [1] is on record?
**A.** The EC50 was 2 nM.

**Q.** And the Bmax [4]?
**A.** Its Bmax is 100%.

**Q.** And the EC50 [4]?
**A.** Its EC50 is 1.8 nM.

**Q.** What about the EC50 [5] of the same binder?
**A.** The EC50 was 1.3 nM.

B4: F010302309 (VHH)
VHH: EVQLVESGGGVVQPGGSLRLSCAASGRILRIGYMRWYRQAPGKQREFVARITDDSATGYADSVKGRFTISRDQAKNTVYLQMNSLRPEDTALYYCEALVTASVRGGSIHSGTYWGQGTLVTVSS
notes: also called F0103387G05(L11V, A14P, D23A, H37Y, G40A, A41P, D58G, N73Q, N82bS, N83R, V89L, R105Q)
**Q.** Which EC50 [1] does the source give for B4 here?
**A.** Its EC50 is 2.3 nM.

**Q.** And the Bmax [4]?
**A.** The Bmax was 100%.

**Q.** And the EC50 [4]?
**A.** Its EC50 is 2.2 nM.

**Q.** What about the EC50 [5] of the same binder?
**A.** Its EC50 is 1.5 nM.

B5: F010301871 (VHH)
VHH: EVQLVESGGGVVQPGGSLRLSCAATSRAFIRDVFTGWYRRVPGKERELVARIYNGGNTNYADFAKGRFTISRDNAKKMVYLQMNSLRPEDTALYYCLFSGTINTGREYRSGDYWGQGTLVTVSS
notes: also called F0103464B09(L11V, T24A, S68T, T79Y, R81Q, S82aN, N82bS, K83R, G88A, V89L); T24A
**Q.** How did the “EC50 fold change compared to reference” value [6] turn out when B5 was run?
**A.** Its value is -2 fold.

B6: F010301872 (VHH)
VHH: EVQLVESGGGVVQPGGSLRLSCATSSRAFIRDVFTGWYRRVPGKERELVARIYNGGNTNYADFAKGRFTISRDNAKKMVYLQMNSLRPEDTALYYCLFSGTINTGREYRSGDYWGQGTLVTVSS
notes: also called F0103464B09(L11V, T25S, S68T, T79Y, R81Q, S82aN, N82bS, K83R, G88A, V89L); T25S
**Q.** How did the “EC50 fold change compared to reference” value [6] turn out when B6 was run?
**A.** The value was -2 fold.

B7: F010301873 (VHH)
VHH: EVQLVESGGGVVQPGGSLRLSCATTSRAFIRDVFTGWYRQVPGKERELVARIYNGGNTNYADFAKGRFTISRDNAKKMVYLQMNSLRPEDTALYYCLFSGTINTGREYRSGDYWGQGTLVTVSS
notes: also called F0103464B09(L11V, R39Q, S68T, T79Y, R81Q, S82aN, N82bS, K83R, G88A, V89L); R39Q
**Q.** Which “EC50 fold change compared to reference” value [6] does the source give for B7 here?
**A.** The value was -4 fold.

B8: F010301876 (VHH)
VHH: EVQLVESGGGVVQPGGSLRLSCATTSRAFIRDVFTGWYRRVPGKERELVARIYNGGNTNYADFVKGRFTISRDNAKKMVYLQMNSLRPEDTALYYCLFSGTINTGREYRSGDYWGQGTLVTVSS
notes: also called F0103464B09(L11V, A63V, S68T, T79Y, R81Q, S82aN, N82bS, K83R, G88A, V89L); A63V
**Q.** Which “EC50 fold change compared to reference” value [6] does the source give for B8 here?
**A.** The value was -2 fold.

B9: F0103PMP478E09 (bispecific antibody)
chain: EVQLVESGGGLVQPGGSLRLSCAASGSIFNINSMAWYRRAPGKQRELVASSTNGGSTNYADSVKGRFTISRDNAKRVYLQMNSLTPEDTAVYYCRALLQPSIYDISRTYWGQGTLVTVSSGGGGSGGGGSGGGGSGGGGSGGGGSGGGGSGGGGSGGGGSGGGGSGGGGSEVQLVESGGGLVQAGGSLRLSCAASGRAFSTLAMGWFRQAPGKEREFVAAISRNGNNSATGDSLKGRFTISRDSTKSTVFLQMNTLKPEDTAVYYCAAISTPSASHPYVRKESYRYWGQGTQVTVSSAAADYKDHDGDYKDHDIDYKDDDDKGAAHHHHHHKAAGGGGG
notes: Screened as crude periplasmic extract; also called F103275B05(N93R)-50GS-F0103478E09 bivalent ISVD
**Q.** Which results are given for B9?
**A.** MFI [7]: 799 MFI; MFI [8]: 1230 MFI; MFI [9]: 82800 MFI; MFI [10]: 60600 MFI; MFI [11]: 139000 MFI; MFI [12]: 137000 MFI

B10: F0103PMP492E09 (bispecific antibody)
chain: EVQLVESGGGLVQPGGSLRLSCAASGSIFNINSMAWYRRAPGKQRELVASSTNGGSTNYADSVKGRFTISRDNAKRVYLQMNSLTPEDTAVYYCRALLQPSIYDISRTYWGQGTLVTVSSGGGGSGGGGSGGGGSGGGGSGGGGSGGGGSGGGGSGGGGSGGGGSGGGGSEVQLVESGGGLVQAGGSLRLSCAASKSILSFAYMRWYRQAPGKQREFVASIAIGGATSYTDSVKGRFTISRDNAKNTVYLQMNSLKPEDTAVYYCSAPAGQYRGQGTLVTVSSAAADYKDHDGDYKDHDIDYKDDDDKGAAHHHHHHKAAGGGGG
notes: crude periplasmic extract; also called F103275B05(N93R)-50GS-F0103492E09 bivalent ISVD
**Q.** B10 was tested. Which MFI [7] did it give?
**A.** Its MFI is 58400 MFI.

**Q.** What about the MFI [8] of the same binder?
**A.** The MFI was 133000 MFI.

**Q.** And the MFI [9]?
**A.** Its MFI is 40200 MFI.

**Q.** And the MFI [10]?
**A.** Its MFI is 25200 MFI.

**Q.** And the MFI [11]?
**A.** Its MFI is 111000 MFI.

**Q.** What about the MFI [12] of the same binder?
**A.** The MFI was 104000 MFI.

B11: F0103492E09 (VHH)
VHH: EVQLVESGGGLVQAGGSLRLSCAASKSILSFAYMRWYRQAPGKQREFVASIAIGGATSYTDSVKGRFTISRDNAKNTVYLQMNSLKPEDTAVYYCSAPAGQYRGQGTLVTVSS
notes: Purified monovalent protein
**Q.** Does B11 bind [13]?
**A.** Result: no binding

**Q.** Does B11 bind [14]?
**A.** Result: no binding

B12: F0103495F09 (VHH)
VHH: EVQLVESGGGLVQAGSSLSLSCAASGRALSTYAMGWFRQAPGKEREFVARISRSGITTYYTDSVKGRFTISRDRAKDTVYLQMNSLKPEDTAIYLCAADASTNPAGYYLRNRYDYWGQGTLVTVSS
notes: also called F103495F09
**Q.** Does B12 bind [14]?
**A.** Result: no binding

B13: F0103500E03 (VHH)
VHH: EVQLVESGGGLVQPGGSLRLSCAASGRTFSRYQMGWFRQAPGKEREFVAYISWSGSTRYVDSVKGRFTISRDNAKNTVYLQMNSLKPEDTAVYHCAAGTAGIISSRPETYDSWGQGTLVTVSS
notes: Purified monovalent protein
**Q.** Does B13 bind [13]?
**A.** Result: no binding

**Q.** Does B13 bind [14]?
**A.** Result: no binding

B14: F0103505D08 (VHH)
VHH: EVQLVESGGGLVQAGGSLRLSCVTSGRTSDLSTMNWFRQAPGKEREFVARITRRGSTYYAESVKERFIISRDNAKNTVYLQMNSLKPEDTANYYCTAASEMGYHYRGQGTLVTVSS
notes: Purified monovalent protein; also called F0103505D8
**Q.** Which results are given for B14?
**A.** binding result [13]: no binding; binding result [14]: no binding

B15: F0103478E09 (VHH)
VHH: EVQLVESGGGLVQAGGSLRLSCAASGRAFSTLAMGWFRQAPGKEREFVAAISRNGNNSATGDSLKGRFTISRDSTKSTVFLQMNTLKPEDTAVYYCAAISTPSASHPYVRKESYRYWGQGTLVTVSS
notes: Purified monovalent protein
**Q.** Does B15 bind [13]?
**A.** Result: no binding

**Q.** Does B15 bind [14]?
**A.** Result: no binding

B16: F0103240B04 (VHH)
VHH: EVQLVESGGGLVQAGGSLRLSCAASGGTGRRYAMGWFRQAPGKEREIVAAIRWSAMTYYADDGKGRFTISRDNAKNTVYLQMNSLKPEDTAIYYCAYTWDYFKYDQVRAYRGWGQGTLVTVSS
notes: Purified monovalent protein; also called anti-Navβ2 ISVD F0103240B04
**Q.** Does B16 bind [13]?
**A.** Result: no binding
